Data from article PMC11387133.

Target: microtubules of purified bovine brain tubulin (bovine) (UniProt Q6B856)
Test: optical trap rupture force assay; kinetochores held on beads by α-penta-His antibody; dynamic microtubules grown from coverslip-anchored GMPCPP seeds; force ramp 0.25 pN/s; 23 °C; BRB80

median rupture force [pN]	Substance
7.5	purified native K. marxianus kinetochores (from UniProt A0ABX6F0Z3 1-547; A0ABX6F2N8 1-203; A0ABX6ES48 1-179; A0ABX6ET36 1-377) (complex)
7.2	purified native S. cerevisiae kinetochores (from UniProt P40568 1-576) (complex)
